The source of these data is patent US20210261648A1 (published 2021).

Experiment [1] deals with T1, FcγRIa extracellular domain with C-terminal His tag (human, UniProt P12314 16-292).
T1 construct: Whole entry named; also called FcgRIa; CD64A
Briefly: SPR (Biacore). In general terms: Surface plasmon resonance follows binding to a sensor surface in real time, without labels.

Experiment [2] concerns the target T2, FcγRIIa type H extracellular domain with C-terminal His tag (human, UniProt P12318 34-217).
T2 construct: extracellular domain; also called FcgRIIaH; FcγRIIa H
T2 sequence (looked up): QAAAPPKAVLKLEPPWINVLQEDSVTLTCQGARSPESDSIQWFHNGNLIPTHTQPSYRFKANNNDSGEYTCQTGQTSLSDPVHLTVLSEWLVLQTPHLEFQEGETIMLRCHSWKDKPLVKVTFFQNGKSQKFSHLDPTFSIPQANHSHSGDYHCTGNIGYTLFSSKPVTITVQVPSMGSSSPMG
Briefly: SPR (Biacore).

Experiment [3] concerns the target T3, FcγRIIIa type V extracellular domain with C-terminal His tag (human, UniProt P08637 17-208).
T3 construct: extracellular domain; Allotype V158 (type V); also called FcgRIIIaV; FcγRIIIaV
Briefly: SPR (Biacore).

Experiment [4] concerns the target T4, FcγRIIb extracellular domain with C-terminal His tag (human, UniProt P31994 43-217).
T4 construct: extracellular domain; For crystals it was expressed with kifunensine and trimmed with Endo F1; also called FcgRIIb; FcγRIIb extracellular region
T4 sequence (looked up): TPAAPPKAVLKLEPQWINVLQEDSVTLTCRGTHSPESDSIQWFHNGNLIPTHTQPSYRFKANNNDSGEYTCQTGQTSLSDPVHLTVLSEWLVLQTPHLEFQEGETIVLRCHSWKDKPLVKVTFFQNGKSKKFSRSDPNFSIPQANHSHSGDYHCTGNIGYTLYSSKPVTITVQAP
In words: SPR (Biacore).

The target of experiment [5] is T4, FcγRIIb extracellular domain with …. Briefly: SPR (Biacore), relative amount of binding.

Substitutions are numbered along the chain they refer to.

T3 sequence (P08637 17-208 F176V): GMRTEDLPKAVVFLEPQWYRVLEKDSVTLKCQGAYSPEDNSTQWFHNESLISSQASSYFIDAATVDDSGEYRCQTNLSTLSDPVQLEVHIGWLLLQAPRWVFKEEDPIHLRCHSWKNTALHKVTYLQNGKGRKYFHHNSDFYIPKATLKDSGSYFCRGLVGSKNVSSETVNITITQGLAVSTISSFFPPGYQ
T1 sequence (P12314 16-292): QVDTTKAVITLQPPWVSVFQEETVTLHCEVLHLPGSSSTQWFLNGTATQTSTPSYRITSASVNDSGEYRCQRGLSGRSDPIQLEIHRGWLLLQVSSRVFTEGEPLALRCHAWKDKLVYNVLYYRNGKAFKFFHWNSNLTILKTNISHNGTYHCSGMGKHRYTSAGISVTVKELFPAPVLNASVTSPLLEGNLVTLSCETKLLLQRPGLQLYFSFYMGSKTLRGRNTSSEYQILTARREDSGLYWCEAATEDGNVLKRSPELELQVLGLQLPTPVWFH

B1: IL6R-BP471/IL6R-L (antibody, human IgG1, kappa)
heavy: QVQLQESGPGLVKPSETLSLTCAVSGHSISHDHAWSWVRQPPGEGLEWIGFISYSGITNYNPSLQGRVTISRDNSKNTLYLQMNSLRAEDTAVYYCARSLARTTAMDYWGEGTLVTVSSASTKGPSVFPLAPSSKSTSGGTAALGCLVKDYFPEPVTVSWNSGALTSGVHTFPAVLQSSGLYSLSSVVTVPSSSLGTQTYICNVNHKPSNTKVDKKVEPKSCDKTHTCPPCPAPDLLGDDSVFLFPPKPKDTLMISRTPEVTCVVVDVSDEDGEVKFNWYVDGVEVHNAKTKPREEQDNSTYRVVSVLTVLHQDWLNGKEYKCKVSNKALPRSIEKTISKAKGQPREPQVYTLPPSRDELTKNQVSLTCLVKGFYPSDIAVEWESNGQPENNYKTTPPVLDSDGSFFLYSKLTVDKSRWQQGNVFSCSVMHEALHNHYTQESLSLSP
light: not shown
For B1, the binding result in experiment [1], in experiment [2] and in experiment [3] was “binds” in each case.

B2: IL6R-BP477/IL6R-L (antibody, human IgG1, kappa)
heavy: B1 heavy with A329G
light: not shown
Take B2: the binding result in experiment [1], in experiment [2] and in experiment [3] was “binds” in each case.

B3: IL6R-BP473/IL6R-L (antibody, human IgG1, kappa)
heavy: B1 heavy with A329G, S333P
light: not shown
Regarding B3, the binding result in experiment [1], in experiment [2] and in experiment [3] was “binds” throughout. Besides, in experiment [4], the “fold increase of binding against IL6R-BP230/IL6R-L” value came out at 1.2 times.

B4: B3 variant of GpH7-B3/GpL16-k0 with Pro at position 238 (EU numbering) substituted with Asp (antibody, human IgG1, kappa)
heavy: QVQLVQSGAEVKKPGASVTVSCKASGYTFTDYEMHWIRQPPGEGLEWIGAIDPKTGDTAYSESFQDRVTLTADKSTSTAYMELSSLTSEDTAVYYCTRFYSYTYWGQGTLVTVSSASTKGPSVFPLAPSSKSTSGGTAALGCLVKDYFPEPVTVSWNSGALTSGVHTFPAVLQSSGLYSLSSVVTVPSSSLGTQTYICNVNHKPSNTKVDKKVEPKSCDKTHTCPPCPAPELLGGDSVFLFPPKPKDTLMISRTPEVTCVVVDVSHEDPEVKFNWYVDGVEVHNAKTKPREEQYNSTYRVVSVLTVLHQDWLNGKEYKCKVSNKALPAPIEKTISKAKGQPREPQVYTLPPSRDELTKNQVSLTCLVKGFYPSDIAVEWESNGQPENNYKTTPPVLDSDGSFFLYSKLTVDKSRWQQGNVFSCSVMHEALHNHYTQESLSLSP
light: DIVMTQSPLSLPVTPGEPASISCQASESLVHSNRNTYLHWYLQKPGQSPQLLIYKVSNRFSGVPDRFSGSGSGTDFTLKISRVEAEDVGVYYCSQNTHVPPTFGQGTKVEIERTVAAPSVFIFPPSDEQLKSGTASVVCLLNNFYPREAKVQWKVDNALQSGNSQESVTEQDSKDSTYSLSSTLTLSKADYEKHKVYACEVTHQGLSSPVTKSFNRGEC
notes: also called mutation A
Regarding B4, in experiment [5], the binding result was “binds”.

B5: IL6R-BP478/IL6R-L (antibody, human IgG4 S228P, kappa)
heavy: QVQLQESGPGLVKPSETLSLTCAVSGHSISHDHAWSWVRQPPGEGLEWIGFISYSGITNYNPSLQGRVTISRDNSKNTLYLQMNSLRAEDTAVYYCARSLARTTAMDYWGEGTLVTVSSASTKGPSVFPLAPCSRSTSESTAALGCLVKDYFPEPVTVSWNSGALTSGVHTFPAVLQSSGLYSLSSVVTVPSSSLGTKTYTCNVDHKPSNTKVDKRVESKYGPPCPPCPAPDLLGDDSVFLFPPKPKDTLMISRTPEVTCVVVDVSDEDGEVKFNWYVDGVEVHNAKTKPREEQDNSTYRVVSVLTVLHQDWLNGKEYKCKVSNKALPRPIEKTISKAKGQPREPQVYTLPPSRDELTKNQVSLTCLVKGFYPSDIAVEWESNGQPENNYKTTPPVLDSDGSFFLYSKLTVDKSRWQQGNVFSCSVMHEALHNHYTQESLSLSP
light: not shown
Take B5: the binding result in experiment [1], in experiment [2] and in experiment [3] was “binds” each time. In experiment [4], the “fold increase of binding against IL6R-BP230/IL6R-L” value is 1.1 fold.
